Laboratory results published in paper PMC7820495.

Molecular target: GST-SVIP (Drosophila SVIP, CG32039) (Drosophila) (UniProt Q8IQC6)
Experiment: pull-down; in vitro binding titration assay of GST-SVIP with MBP-VCP wild type and disease-relevant mutants; binding curves and affinities in Fig. 7b-e

GST-SVIP (Drosophila SVIP, CG32039) (Drosophila), sequence (Q8IQC6 entry or part of it): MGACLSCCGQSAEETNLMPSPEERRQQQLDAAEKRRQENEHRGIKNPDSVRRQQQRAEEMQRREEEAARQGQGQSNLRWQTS

**Q.** With “MBP-VCP^P134L (Drosophila VCP) (from UniProt Q7KN62 1-801) (domain or fragment)” as the substance, how does the fold reduction of SVIP–VCP affinity against wild type read?
**A.** The fold reduction of SVIP–VCP affinity against wild type was > 30 fold.
